This note sets out measurements from patent publication US10071358B2, “Antibiotic preparation method and platform system based on same” (priority 2011, dated 2018).

What all share (type): cell-based
Test [1] concerns methicillin-resistant Staphylococcus aureus (ATCC BAA-42).
The subject of test [2] is multi-drug resistant Pseudomonas aeruginosa (clinical isolated strain 13578 in West China Hospital). Nature of the test: inhibition / killing of multi-drug resistant Pseudomonas aeruginosa. Conditions: FIG. 7 C.
In test [3] the test system is vancomycin-resistant enterococci (ATCC 700802). The experiment in a line: inhibition / killing of vancomycin-resistant enterococci. Conditions: FIG. 7 A.

B1: wild-type colicin Ia: wild-type colicin Ia, bacteriocin secreted by Escherichia coli that forms ion channels (protein, UniProt P06716 1-626, looked up)
Colicin-Ia: MSDPVRITNPGAESLGYDSDGHEIMAVDIYVNPPRVDVFHGTPPAWSSFGNKTIWGGNEWVDDSPTRSDIEKRDKEITAYKNTLSAQQKENENKRTEAGKRLSAAIAAREKDENTLKTLRAGNADAADITRQEFRLLQAELREYGFRTEIAGYDALRLHTESRMLFADADSLRISPREARSLIEQAEKRQKDAQNADKKAADMLAEYERRKGILDTRLSELEKNGGAALAVLDAQQARLLGQQTRNDRAISEARNKLSSVTESLNTARNALTRAEQQLTQQKNTPDGKTIVSPEKFPGRSSTNHSIVVSGDPRFAGTIKITTSAVIDNRANLNYLLSHSGLDYKRNILNDRNPVVTEDVEGDKKIYNAEVAEWDKLRQRLLDARNKITSAESAVNSARNNLSARTNEQKHANDALNALLKEKENIRNQLSGINQKIAEEKRKQDELKATKDAINFTTEFLKSVSEKYGAKAEQLAREMAGQAKGKKIRNVEEALKTYEKYRADINKKINAKDRAAIAAALESVKLSDISSNLNRFSRGLGYAGKFTSLADWITEFGKAVRTENWRPLFVKTETIIAGNAATALVALVFSILTGSALGIIGYGLLMAVTGALIDESLVEKANKFWGI
As to B1, the “minimum inhibitory concentration (MIC)” value in test [1] was 0.23 nmol; in test [2], 0.91 nmol; in test [3], 0.91 nmol.
